In the nanobody polyreactivity screen of Harvey et al. (2022):

Assay: yeast display, Sf9 membrane polyspecificity reagent, FACS + sequencing; frameworks hold sequencing errors
Method in brief: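 Polyreactivity labels are assigned by the sorting gate from which each nanobody was recovered. The gates were low and high (top ~1%), set on anti-HA fluorescence for expression and streptavidin fluorescence for reagent binding. Before sorting, galactose-induced (36–48 hours) yeast display cells were stained for 1 hour at 4 °C with 10% biotinylated, detergent-solubilized Sf9 membrane reagent.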

Sequence	polyreactivity (PSR sort gate)
QVQLVESGGGLVQAGGSLRLSCAASGFIFRRNVMGWYRQAPGKERELVAAISRSGASTYYADSVKGRFTISRDNAKNTVYLQMNSLKPEDTAVYYCNKRDKVTYSYDYWGQGTQVTVSS	high polyreactivity
QVQLVESGGGLVQAGGSLRLSCAASGRIFVDYDMGWYRQAPGKERELVAAISFDGGNTYADSVKGRFTISRDNAKNTVYLQMNSLKPEDTAVYYCARDDTSPGYGDQSSNAAYYYWGQGTQVTVSS	low polyreactivity
QVQLVESGGGLVQAGGSLRLSCAASGSTFSYNAMGWYRQAPGKERELVAAISRGDVSTYYADSVKGRFTISRDNAKNTVYLQMNSLKPEDTAVYYCAAYWYGSQYKWRYDYWGQGTQVTVSS	low polyreactivity
QFQLVESGGGLVQAGGSLRLSCAASGITFKTYAMGCYRQAPGKERELFATINRGSRTNYADSVKGRFTISRDNAKNTVYLQMNSLKPEDTAVYYCAAHYTTFIPSPDGDYLGQGTQVTVSS	low polyreactivity
QVQLVESGGGLVQAGGSLRLSCAASGRIFDNYGMGWYRQAPGKERELVAAISSGGGRYYADSVTGRFTISRDNAKNTVYFQMHSLKPEDTAVYYCAKDPKYHLSGGYDYWGQGTQVTVSS	low polyreactivity
QVQLVESGGGLVQAGGSLRLSCAASGRIFKLYAMGLYRQAPGKERELVAASSKSGGSTYYADSVKGRFKISRDNAKNTVYLQMNSLKPEDSAVYYCNADPVRSGLDYWGQGTQVTVSS	high polyreactivity
QVQLVESGGGLVQAGGSLRLSCAASGSTSIYYTMGWYRQAPGKERELVAYADSVKGRFTISRDNAKNTVYLQMNSMKPEDTEVYFCAAPRTYYSELTSPYDYWGQGTQVTVSS	low polyreactivity
QVQLVESGGGLVQAGGSLRLSCAASGSIFFKYTLGWYRQAPGKERELVAAISYSGGRTYYADSVKGRFTISRDTAKNTVYLQMNSLKPEDTAVYDGATRDEITHGDRMDYWGQGTQVTVSS	low polyreactivity
QVQLVESGGGLVQAGGSLRLSCAASGYIFTRNAMGWYRQAPGKERELVAAISRSGGSTYYADSLKGRFTISRDNAKNTVYLQMNSLKPEDTSVYYCAAVDKGRPGRDYWGQGTQVTVSS	low polyreactivity
QVQLVDSGGGLVQAGGSLLLICAASGSTIPRNAMGWYRQAPGKERELVAAITSGGSTNYADSVKGRFTISRDNAKNTVYLQMNSLKPEDTAVYYCAADEQVNTQYVVWGDYWGHGTQVTVSS	low polyreactivity
QVQLVESGGGLVQAGGSLRLSCAASGFTFEYNDMGWYRQAPGKERELVASISYDSDSTYYAVSVKGRFTISRDNAKNTVYLQMNSLKPEDTAVYYCNAGSSYHEYGYWGQGTQVTVSS	high polyreactivity
QVQLVESGGGLVQAGGSLRLSCAASGFIFRKYTMGWYRQAPGKERELVATIDSSGGSTYYADSVKGRFTISRDNAKNTVYLQMNSLKPEDTAVYYCNADLRELSPWYWYSGEMDYWGQGTQVTVSS	low polyreactivity
QEQLVDSGGGLVQAGGSLRLSCAASVRIFGRYVMGWYRQAPGKERELVAAITSRDDSTYYADSVKGRFTISRDNAKNTVYLQMNSLKPEDTAVYYCAATWGRGYDYCGQGTQVTVSS	high polyreactivity
QVQLVESVGGLVQAGGSLRLSCAASGFIIYGYGMGWYRQAPGKERELVAAISARSTRTYYADSVKGRFTISRDNAKNTVYLQMNSLKPEDTAVYYCAAVRGPTYRNDNYGYWGQGTQVTVSS	high polyreactivity
QVQLVESGGGLVQAGGSLRLSCAASGFIIDGYAMGWYRQAPVKERELVAVISQRGSNTYYADSVKGRFTISRDNAKNTVYLQMNSLKPEDTAVYYCAARYKQGDSTGGRMNYWGQGTQVTVSS	high polyreactivity
QVKLVESGGGLVQAGGSLRLSCAASGFTFNGYGMGWYRQAPGKERELVAAISRSSGGTYYADSVKGRFTISRDNAKNTVYLQMNSLKPVDTAVYYCAATGYRTATPSWRYYYWGQGSQVTVSS	high polyreactivity
QEQLHESGGGQVQAGGSLLLSCAASGNIIRYYYIGCYRQAPGKEPELVAAITYGTSTNYADSVKGRFTISRDNAKNTVYLQMNSLKPEDTAVYYCAVDVNYGDPLDNWGQGTQVTVSS	high polyreactivity
QVQLVESGGGLVQAGGSLSLSCAASGFTFAKYAMGWYRQAPGKERELVATISWSGGTTSYADSVKGRFTISRDNAKNTVYLQMNSLKPEDTAVYYCAALRYADYDYWGQGTQVTVSS	high polyreactivity
QVQLVESGGGLVQAGGSLRLSCAASGITFYWYTMGWYRQAPGKERELVADIDGDGGSTYYADSVKGRFTISRDNAKNTVYLQMNSLKPEDTAVYYCAAQVWPWGYDYWGQGTQVTVSS	high polyreactivity
QVQLVESGGGVVQPGGSLSLSCAGSGITFWYYDLVWSRQAPGKERELVATITSSGSTYYADSVKGRFTISRDNAKNTVYLQKNSLKPEDTAVYFCAPQYGYSYYSGRYGYWGQGTQVTVSS	high polyreactivity
QVQLVESGGGLVQAGGSLRLSCAASGLIFGPYAMGWYRQAPGKERELVAAITSSGGSTYYADSVKGRFTISRDNAKNTVYLQMNSLKPEDTAVYSCAARGSPRYYARYNYWGQGTQVTVSS	low polyreactivity
QVQLVESGGGLVQAGGSLRLSCAASGSIFYWYAMGWYRQAPGKERELVASIRWSGGTYYADSVKGRFTISRDNAKNTVYLQMNSLKPEDTAVYYCNKGGGRGHFEYWGQGTQVTVSS	low polyreactivity

Sequence	polyreactivity (PSR sort gate)
QVQLVESGGGLVQAGGSLRLSCAASGSIFSRYAMGWYRQAPAKERELVAASSSRGGSTYYADSVKGRFTISRDNAKNTVYLQMNSLKTEDTAVYYCAAQAPDTPSLDEGDFWGQGTQVTVSS	high polyreactivity
QVQLVESGGGLVQAGGSLSLSCAASGIIFYYYAMGWYRQAPGKERELVAAISTSGGRTYYADSVKGRFTISRDNAKNTVYLQMNSMKPEDTAVYYCAADYLKGEEDYWGQGTQVTVSS	low polyreactivity
QVQLVESGGGLVQAGGSLRLSCAASGSTIFYNAMGWYSKAPGKERELVAAITDSGGSTYYADSVKGRFTISRDNAKNTVYLQMNSLKPEDTAVYYCAKRNFDNPIFDYWGQGTQVTVSS	low polyreactivity
QVQLVESGGGLVQAGGSLRLSCAASGSIFTYYAMGWYRQAPGKERELVAAISASGGSTYYADSVKGRFTISRDNAKNTVYLQMNSLKPEDTAVYYCAADYRRSGGGNLPYDNDYWGQVTQVTVSS	high polyreactivity
QVQLVESGGGLVQAGGSLRISCAASGFTIAYYAMGWYRQAPGKERQKVASISSGDSTHYADSVKGRFTISRDNAKNTVYLQMNSLKPEDTAVYYCNADTRTFYYAAKTGFTFLYGYWGQGTQVTVSS	high polyreactivity
QVQLVESGGGLVQAGGSLRLSCAASGFIFRVYAMGWYRQAPGKERELVAAMSYSGGSTYYADSVKGRFTISRDNAKNTVYLQMNSLKPEDTAVYYCAAESYVSRYPYGYWGQGTQVTVSS	high polyreactivity
QVQLVESGGGLVQAGGSLRLSCAASGRTFKDYAMGWDIQEPGKERELVAAISWSGGDTYYADSVKGRFTISRDNAKNTVYLQMNSLKPEDTAVYYCNADPSGVFFYSLEFDYWGQGTQVTVSS	low polyreactivity
QVQLVESGGGLVQAGGSLRLSCAASGFIFRGYAMGWYRQAPGKERELVAAITYSTGNTYYADSVKGRFTISRDNAKNTVYLQMNSLKPEDTAVYYCNKVVRKFIGGYVYYSGGYWGQGTQVTVSS	low polyreactivity
QVQLVESGGGLVQAGGSLRLSCAASGRIFVINDMGWYRKATGKERELVAAITWGSSTYADSVKGRFTISRDNAKNTVYLQMNSLKPEDTAVYYCARDVYPSTWEYDYWGQGTQVTVSS	low polyreactivity
QVQLVVSGGGLVQAGGSLRLSCAASGSMLYKYAMGWYRQPPGKEREFVAAISSSGGITYYADSVKGRFTISRDNAKNTVYLQMNSLKPEDTAVYYCAARTRSQFGHGYWGQGTQVTVSS	high polyreactivity
QVQRVESGGGLVQAGGSLRLSCAASGRIFRYYAMGWYRQAPGKERELVASISRRGGSTNYADSVKGRFTISRDNAKNTVYLQMNSLKPEYTAVYYSNAENWSPRGLYNYWGQGTQVTVSS	high polyreactivity
QVQLQESGGGLVQAGGSLRLSCAASGSISILENMGWYRQPPGLGRDFVAGIGYGSSTYYADSVKGRFTISRDNAKNTVYQQMNSLKPEDTTVYYCAVVEYQCVTYLYWGQGSQVTVSS	low polyreactivity
QVQLQESGGGLLQAGGSLRLSYAASGYMFPYLAMGWYRQAPGKEREFVAAIGRGSTNNYADSVKGRFTISRDNAKNTAFQQMNSLKPEDTAVYYCAAAASPLTRHLYWGQGSQVTVSS	low polyreactivity
QVQLVESGGGLVQAGGSLRLSCAASGSTLNSYVMGWYRQAPGKERELVATIRSGSSTNYADSVKGRFTISRDNAKNTVYLQMNSLKPEDTAVYYCAGDAYSLCYDSWGQGTQVTVSS	low polyreactivity
QVQLVESGGGLVQAGGSLRLSCAASGSIFSRNAMGWYRQAPGKERELVAAISYSSGSTYYADSVKGRFTLSRDNAKNTVYLQMNSLKPEDTAVYYCAADTTKLQGAEVDFWGQGTQVTVSS	low polyreactivity
QVQLVESGGGLVQAGGSLRLSCAASGFILATYAMGCYRQAPGKERELVAAISASGSSTYYADSVKGRFTISRDNAKNTVYLQMNSLKPEDTAVYYCAASWGYGALTPDMGYWGQGTQVTVSS	low polyreactivity
QVQLVESGGGLVQAGGSLRLSCAASGYIFGSYVMGWYRQAPGKERELVAAITRIGASTYFADSVKGRFTISRDNAKNTVYLQMNSLKPDDTAVFYCATDQGGYYENDYWGQGTQVTVSS	low polyreactivity
QVQLVESGGGLVQAGGSLRLSCAASGFTFNRYAMGWYRQAPGKERELVAAITRRGGSTYYADSVKGRFTISRDNAKNTVYLQMNSLKPEYSAVYYCNVDFQAYGIPMDYWGQGTQVTVSS	high polyreactivity
QVQLQESGGGLVQAGGSLRLSCAASGSISGPHVMGWYRQAPGKEREFVAAINVGANTYYADNVKGRFTISRDNAKNTVYLQMNSLKPEDTAVYYCAAEYGIYETGHYGIYDYWGQGTQVTVSS	low polyreactivity
QVQLVESAGGLVQAGGSLRLSCAASGSIFRAYSMGWYRQAPGKERELVAAISWGGGSTSYADSVKGRFTISRDNAKNTVYLQMNSLQPEDTAVYYCNKVSFSKRRDYYWGQGTQVTVSS	high polyreactivity
QVQLVESGGGLVQAGGSLRLSCAASGSTLPGNVMAWYRQAPGKERELVAAISKRGASTYYADSVKGRFTISRDNAKNTVYLQMNSLKPEDTAVYYCATRTRGSVFRFDYWGQGTQVTVSS	high polyreactivity
